Positions count from the first letter of the chain named.

The results in this text go back to US20240287190A1 (THERANOTICS, published 2024).

First the molecules themselves.
T1: recombinant human B7-H3 protein (R&D Systems, Cat #1027-B3-100) (human, UniProt Q5ZPR3-2 29-245)
T1 construct: Bought protein; also called CD276
T1 sequence (looked up): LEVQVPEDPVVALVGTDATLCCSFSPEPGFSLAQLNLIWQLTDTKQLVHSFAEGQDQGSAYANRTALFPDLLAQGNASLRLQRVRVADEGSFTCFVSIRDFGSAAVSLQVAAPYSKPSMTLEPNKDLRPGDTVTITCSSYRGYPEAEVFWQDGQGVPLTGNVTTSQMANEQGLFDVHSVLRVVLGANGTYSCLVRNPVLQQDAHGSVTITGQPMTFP

T2: recombinant human TGFβ3 protein (R&D Systems, Cat #8420-B3-025/CF) (human, UniProt P10600 301-412)
T2 construct: Bought protein
T2 sequence (looked up): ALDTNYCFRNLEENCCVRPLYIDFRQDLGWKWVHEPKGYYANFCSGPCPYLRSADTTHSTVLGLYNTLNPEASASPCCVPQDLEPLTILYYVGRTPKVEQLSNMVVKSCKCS

T3: recombinant human TGFβ2 (R&D Systems, Cat #302-B2-010/CF) (human, UniProt P61812 303-414)
T3 construct: Bought protein
T3 sequence (looked up): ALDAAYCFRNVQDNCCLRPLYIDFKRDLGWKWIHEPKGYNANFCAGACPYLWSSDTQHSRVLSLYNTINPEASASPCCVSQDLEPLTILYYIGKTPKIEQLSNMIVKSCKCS

B1: #5 bispecific molecule (bispecific antibody, human IgG1, N297A)
heavy: not shown
VL: QSVLTQPPSASGTPGQRVTISCSGSSSNIGSNYVYWYQQLPGTAPKLLIYRNNQRPSGVPDRFSGSKSGTSASLAISGLRSEDEADYYCGTWDSSLSGVVFGGGTKLTVL
notes: also called #5 (TRAP); B7-H3/TGFβ bispecific molecule #5
B2: #8 bispecific molecule (bispecific antibody, human IgG1, N297A)
heavy: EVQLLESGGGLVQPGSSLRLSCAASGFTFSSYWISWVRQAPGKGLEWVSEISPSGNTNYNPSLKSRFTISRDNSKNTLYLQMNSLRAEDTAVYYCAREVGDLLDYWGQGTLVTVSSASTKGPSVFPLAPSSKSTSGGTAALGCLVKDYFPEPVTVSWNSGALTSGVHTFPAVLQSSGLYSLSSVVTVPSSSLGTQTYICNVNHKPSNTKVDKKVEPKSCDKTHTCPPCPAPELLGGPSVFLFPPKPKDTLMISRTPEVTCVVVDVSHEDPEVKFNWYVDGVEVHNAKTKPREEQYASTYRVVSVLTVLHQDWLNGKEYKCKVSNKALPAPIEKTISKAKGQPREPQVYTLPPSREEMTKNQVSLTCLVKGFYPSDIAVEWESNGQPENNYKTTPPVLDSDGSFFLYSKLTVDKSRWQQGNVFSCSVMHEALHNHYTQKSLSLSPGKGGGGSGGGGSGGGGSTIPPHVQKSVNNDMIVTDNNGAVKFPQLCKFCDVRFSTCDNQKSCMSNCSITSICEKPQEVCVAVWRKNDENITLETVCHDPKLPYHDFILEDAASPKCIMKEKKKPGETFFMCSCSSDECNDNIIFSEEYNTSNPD
VL: QSVLTQPPSASGTPGQRVTISCSGSNIGNNYVSWYQQLPGTAPKLLIYQDSKRPSGVPDRFSGSKSGTSASLAISGLRSEDEADYYCLVWDRSSDHFVFGGGTKLTVL
notes: also called #8 (TRAP); B7-H3/TGFβ bispecific molecule #8
B3: #4 bispecific molecule (bispecific antibody, human IgG1, N297A)
heavy: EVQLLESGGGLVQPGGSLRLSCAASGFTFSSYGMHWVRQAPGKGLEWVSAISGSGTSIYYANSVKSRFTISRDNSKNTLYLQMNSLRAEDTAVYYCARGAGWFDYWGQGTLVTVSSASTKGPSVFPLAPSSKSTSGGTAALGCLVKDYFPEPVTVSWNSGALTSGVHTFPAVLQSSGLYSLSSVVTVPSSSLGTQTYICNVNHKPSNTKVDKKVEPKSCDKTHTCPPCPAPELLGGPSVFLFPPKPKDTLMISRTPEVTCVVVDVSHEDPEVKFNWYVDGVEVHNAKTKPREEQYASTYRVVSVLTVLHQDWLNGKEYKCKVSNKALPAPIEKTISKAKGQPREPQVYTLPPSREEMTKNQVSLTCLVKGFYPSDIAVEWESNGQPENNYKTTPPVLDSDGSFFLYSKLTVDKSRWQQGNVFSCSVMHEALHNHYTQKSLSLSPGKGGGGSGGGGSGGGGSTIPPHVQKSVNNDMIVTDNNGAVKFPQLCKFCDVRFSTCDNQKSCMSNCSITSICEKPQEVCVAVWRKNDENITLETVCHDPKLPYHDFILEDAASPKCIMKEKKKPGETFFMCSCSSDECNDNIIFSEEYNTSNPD
VL: QSVLTQPPSASGTPGQRVTISCSGSTSNIGSNTVNWYQQLPGTAPKLLIYGKNIRPNGVPDRFSGSKSGTSASLAISGLHSEDEADYYCQSYDSSLSGWVFGGGTKLTVL
notes: also called #4 (TRAP); B7-H3/TGFβ bispecific molecule #4
B4: #6 bispecific molecule (bispecific antibody, human IgG1, N297A)
heavy: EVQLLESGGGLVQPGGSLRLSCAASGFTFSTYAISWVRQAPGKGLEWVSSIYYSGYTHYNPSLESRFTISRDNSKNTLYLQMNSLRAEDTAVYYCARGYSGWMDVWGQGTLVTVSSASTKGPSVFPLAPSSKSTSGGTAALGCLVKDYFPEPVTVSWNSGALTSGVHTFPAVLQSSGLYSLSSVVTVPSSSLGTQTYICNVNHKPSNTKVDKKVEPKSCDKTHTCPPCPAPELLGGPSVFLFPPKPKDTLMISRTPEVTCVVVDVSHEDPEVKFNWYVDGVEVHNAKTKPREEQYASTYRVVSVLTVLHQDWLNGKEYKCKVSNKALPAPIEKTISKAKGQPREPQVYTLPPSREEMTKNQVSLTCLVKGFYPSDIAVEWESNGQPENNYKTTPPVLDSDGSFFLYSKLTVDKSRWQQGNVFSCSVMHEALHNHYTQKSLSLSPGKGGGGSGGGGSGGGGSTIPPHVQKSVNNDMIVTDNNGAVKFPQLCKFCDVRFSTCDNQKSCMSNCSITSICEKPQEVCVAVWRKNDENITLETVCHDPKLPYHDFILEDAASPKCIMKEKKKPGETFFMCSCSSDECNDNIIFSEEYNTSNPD
VL: QSVLTQPPSASGTPGQRVTISCGGNNIGSKSVHWYQQLPGTAPKLLIYDNNKRPSGVPNRFSGSKSGTSASLAISGLRSEDEADYYCAAWDDSLNVPVFGGGTKLTVL
notes: also called #6 (TRAP); B7-H3/TGFβ bispecific molecule #6
B5: #9 bispecific molecule (bispecific antibody, human IgG1, N297A)
heavy: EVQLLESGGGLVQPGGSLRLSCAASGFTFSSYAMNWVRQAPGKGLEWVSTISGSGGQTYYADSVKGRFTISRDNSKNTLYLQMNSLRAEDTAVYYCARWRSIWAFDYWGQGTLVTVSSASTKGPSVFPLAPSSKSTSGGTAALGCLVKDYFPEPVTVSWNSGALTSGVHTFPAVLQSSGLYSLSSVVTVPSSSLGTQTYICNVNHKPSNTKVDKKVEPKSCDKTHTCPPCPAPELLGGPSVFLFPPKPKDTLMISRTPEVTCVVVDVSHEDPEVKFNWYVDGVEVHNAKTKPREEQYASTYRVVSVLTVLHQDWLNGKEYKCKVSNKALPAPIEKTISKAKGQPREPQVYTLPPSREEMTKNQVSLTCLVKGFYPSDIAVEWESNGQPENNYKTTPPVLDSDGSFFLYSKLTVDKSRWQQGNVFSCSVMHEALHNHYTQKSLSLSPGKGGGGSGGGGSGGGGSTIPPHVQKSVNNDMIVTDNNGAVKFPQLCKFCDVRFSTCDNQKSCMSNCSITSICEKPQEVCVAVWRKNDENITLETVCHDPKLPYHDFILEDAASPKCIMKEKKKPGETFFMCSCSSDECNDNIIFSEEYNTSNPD
VL: B4 VL with G23S, G24D, N59D, A88G, A89T, N95S, V96G
notes: also called #9 (TRAP); B7-H3/TGFβ bispecific molecule #9
B6: #1 bispecific molecule (bispecific antibody, human IgG1, N297A)
heavy: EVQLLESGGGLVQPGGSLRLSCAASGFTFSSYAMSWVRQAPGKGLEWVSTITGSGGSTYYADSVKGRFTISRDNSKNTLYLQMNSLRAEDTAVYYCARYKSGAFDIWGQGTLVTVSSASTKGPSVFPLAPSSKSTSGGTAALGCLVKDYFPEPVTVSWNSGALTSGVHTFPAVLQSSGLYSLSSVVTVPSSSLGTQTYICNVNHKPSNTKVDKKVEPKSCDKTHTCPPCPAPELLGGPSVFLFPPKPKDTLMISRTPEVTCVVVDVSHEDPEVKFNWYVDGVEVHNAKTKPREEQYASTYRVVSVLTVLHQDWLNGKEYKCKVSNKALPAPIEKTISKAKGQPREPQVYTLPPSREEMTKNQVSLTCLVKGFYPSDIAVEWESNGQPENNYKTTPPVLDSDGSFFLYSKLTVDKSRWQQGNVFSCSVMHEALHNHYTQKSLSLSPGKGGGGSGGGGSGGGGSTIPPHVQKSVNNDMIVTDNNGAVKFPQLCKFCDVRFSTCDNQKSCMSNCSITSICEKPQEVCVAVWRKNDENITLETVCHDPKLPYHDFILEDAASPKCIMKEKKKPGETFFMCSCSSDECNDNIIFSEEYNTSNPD
VL: EIVLTQSPGTLSLSPGERATLSCRASQGIGNYLGWYQQKPGQAPRLLIYTASSLQSGIPDRFSGSGSGTDFTLTISRLEPEDFAVYYCQQGYSTPSWTFGQGTKVEIK
notes: also called #1 (TRAP); B7-H3/TGFβ bispecific molecule #1
B7: #3 bispecific molecule (bispecific antibody, human IgG1, N297A)
heavy: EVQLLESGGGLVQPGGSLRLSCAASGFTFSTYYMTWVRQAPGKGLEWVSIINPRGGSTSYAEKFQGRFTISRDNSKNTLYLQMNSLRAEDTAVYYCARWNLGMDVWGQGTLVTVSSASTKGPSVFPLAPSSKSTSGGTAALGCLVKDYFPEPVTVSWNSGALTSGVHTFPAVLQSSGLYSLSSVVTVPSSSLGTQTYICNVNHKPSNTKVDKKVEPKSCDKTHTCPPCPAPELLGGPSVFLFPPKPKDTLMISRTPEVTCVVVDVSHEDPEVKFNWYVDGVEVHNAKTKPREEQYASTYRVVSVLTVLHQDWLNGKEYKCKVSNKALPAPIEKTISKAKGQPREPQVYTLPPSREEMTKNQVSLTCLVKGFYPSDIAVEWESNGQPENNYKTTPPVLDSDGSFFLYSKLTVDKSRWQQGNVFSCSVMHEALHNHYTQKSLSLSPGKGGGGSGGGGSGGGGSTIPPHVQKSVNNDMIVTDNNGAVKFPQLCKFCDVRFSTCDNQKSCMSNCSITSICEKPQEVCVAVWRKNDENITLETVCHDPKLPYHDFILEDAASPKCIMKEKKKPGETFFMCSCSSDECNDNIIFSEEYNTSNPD
VL: EIVLTQSPGTLSLSPGERATLSCRVSQSISSYLNWYQQKPGQAPRLLIYDASHRATGIPDRFSGSGSGTDFTLTISRLEPEDFAVYYCQQYYAPSVTFGQGTKVEIK
notes: also called #3 (TRAP); B7-H3/TGFβ bispecific molecule #3
B8: #2 bispecific molecule (bispecific antibody, human IgG1, N297A)
heavy: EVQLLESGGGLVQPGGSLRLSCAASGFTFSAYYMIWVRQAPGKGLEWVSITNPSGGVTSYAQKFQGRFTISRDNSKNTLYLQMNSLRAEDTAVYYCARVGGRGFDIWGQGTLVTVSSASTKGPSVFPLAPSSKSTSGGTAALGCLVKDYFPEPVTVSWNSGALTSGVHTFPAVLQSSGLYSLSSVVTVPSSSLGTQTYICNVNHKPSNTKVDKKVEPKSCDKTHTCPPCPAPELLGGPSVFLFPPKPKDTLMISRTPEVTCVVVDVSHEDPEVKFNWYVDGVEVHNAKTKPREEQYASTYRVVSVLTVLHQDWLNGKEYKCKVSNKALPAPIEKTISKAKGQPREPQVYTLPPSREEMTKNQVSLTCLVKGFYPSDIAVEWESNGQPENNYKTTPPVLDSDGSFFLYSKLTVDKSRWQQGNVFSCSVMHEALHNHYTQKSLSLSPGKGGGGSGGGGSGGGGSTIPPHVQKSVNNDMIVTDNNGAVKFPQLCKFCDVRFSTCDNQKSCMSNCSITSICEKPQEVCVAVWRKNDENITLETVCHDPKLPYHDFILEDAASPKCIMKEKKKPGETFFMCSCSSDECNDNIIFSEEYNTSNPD
VL: EIVLTQSPGTLSLSPGERATLSCHASQGISNYVAWYQQKPGQAPRLLIYDASNRATGIPDRFSGSGSGTDFTLTISHLEPEDFAVYYCQQSYSTLLTFGQGTKVEIK
notes: also called #2 (TRAP); B7-H3/TGFβ bispecific molecule #2
B9: #7 bispecific molecule (bispecific antibody, human IgG1, N297A)
heavy: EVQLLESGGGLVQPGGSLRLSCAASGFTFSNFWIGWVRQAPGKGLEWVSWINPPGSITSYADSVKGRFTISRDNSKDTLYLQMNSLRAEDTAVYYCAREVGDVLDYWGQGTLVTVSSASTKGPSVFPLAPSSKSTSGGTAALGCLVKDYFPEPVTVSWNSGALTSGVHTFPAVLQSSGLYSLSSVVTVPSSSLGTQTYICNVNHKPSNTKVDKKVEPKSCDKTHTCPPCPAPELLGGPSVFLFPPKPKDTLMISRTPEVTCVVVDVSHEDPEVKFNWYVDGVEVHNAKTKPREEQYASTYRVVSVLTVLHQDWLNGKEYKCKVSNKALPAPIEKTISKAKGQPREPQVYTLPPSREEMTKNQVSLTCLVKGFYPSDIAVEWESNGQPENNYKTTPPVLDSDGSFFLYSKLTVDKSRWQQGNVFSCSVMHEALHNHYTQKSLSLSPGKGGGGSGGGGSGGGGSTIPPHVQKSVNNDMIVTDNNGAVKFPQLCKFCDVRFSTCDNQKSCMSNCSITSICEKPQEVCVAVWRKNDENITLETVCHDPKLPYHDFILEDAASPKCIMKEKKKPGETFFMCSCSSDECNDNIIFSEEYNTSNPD
VL: QSVLTQPPSASGTPGQRVTISCTGTSSDIGRYNYVSWYQQLPGTAPKLLIYRNTQRPSGVPDRFSGSKSGTSASLAISGLRSEDEADYYCGTWDSSLNAYVFGGGTKLTVL
notes: also called #7 (TRAP); B7-H3/TGFβ bispecific molecule #7
B10: #1 (mono) B7-H3 mono antibody free of TGFβ binding portion (antibody, human IgG1, N297A, V domains shown)
VH: EVQLLESGGGLVQPGGSLRLSCAASGFTFSSYAMSWVRQAPGKGLEWVSTITGSGGSTYYADSVKGRFTISRDNSKNTLYLQMNSLRAEDTAVYYCARYKSGAFDIWGQGTLVTVSS
VL: B6 VL
B11: #2 (mono) B7-H3 mono antibody free of TGFβ binding portion (antibody, human IgG1, N297A, V domains shown)
VH: EVQLLESGGGLVQPGGSLRLSCAASGFTFSAYYMIWVRQAPGKGLEWVSITNPSGGVTSYAQKFQGRFTISRDNSKNTLYLQMNSLRAEDTAVYYCARVGGRGFDIWGQGTLVTVSS
VL: B8 VL

T4 sequence (P01137 279-390 limits assumed): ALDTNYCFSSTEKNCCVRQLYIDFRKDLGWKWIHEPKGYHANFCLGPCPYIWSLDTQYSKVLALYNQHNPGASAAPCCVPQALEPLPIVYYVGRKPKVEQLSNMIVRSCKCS

For one test, the target named is T1, recombinant human B7-H3 protein (R&D …). Nature of the test: ELISA; plate-coated recombinant human B7-H3, bispecific titrated. The procedure: After coating a plate with recombinant human B7-H3 protein (R&D Systems, Cat #1027-B3-100) (30 μL, 20 nM) in 1×PBS solution, the plate was covered and coated overnight at 2 to 8° C. Thereafter, the wells were washed once with 150 μL PBS per well, and blocked with 120 μL of blocking buffer (1×PBS-T w/3% BSA) per well for 2 hours at room temperature. The blocking buffer was discarded and 30 μL of antibody solution was added using a series of dilution solutions (using the blocking buffer, #1 to #9 bispecific molecules were diluted in serial by two times; 2-fold serial dilution), and reacted at room temperature for 1 hour, then the wells were washed three times with 150 μL of wash buffer per well. 30 μL of HRP conjugate of anti-HA Tag antibody diluted in the blocking buffer was added to each well, and reacted at room temperature for 1 hour. Thereafter, the wells were washed three times with 150 μL of washing buffer per well, the HRP reaction was developed using TMB, the reaction was stopped with 1 N HCl, and then the optical density (OD) was measured at 450 nm.
It was confirmed that #1 to #9 bispecific molecules specifically bind to B7-H3 with excellent binding force.
(In an ELISA, binding on a coated surface is turned into a signal by an enzyme label.)
Regarding B1, the EC50 – broadly, the concentration needed to bring the measured effect to its halfway point – came to 10.2 nM.

As for B2, the EC50 was 1.72 nM.

Consider B3, for which the EC50 is 29.3 nM.

For B4, the EC50 amounted to 1.34 nM.

On to B5, for which the EC50 is 6.11 nM.

Consider B6, for which the EC50 turned out to be 27.5 nM.

B7: the EC50 amounted to 5.94 nM.

As for B8, the 50% effective concentration (EC50) came to 3.19 nM.

With B9, the EC50 amounted to 12.2 nM.

A further test has as its target T4, recombinant human TGFβ1 protein (R&D Systems, Cat #7754-BH-025/CF) (human, UniProt P01137 279-390).
T4 construct: Bought protein
Put plainly: ELISA; plate-coated TGFβ1, bispecific titrated, anti-human IgG1 Fc-HRP. The procedure: (§1) After coating a plate with each of recombinant human TGFβ1 protein (R&D Systems, Cat #7754-BH-025/CF) and TGFβ3 protein (R&D Systems, Cat #8420-B3-025/CF) (30 μL, 0.5 μg/ml) in 1×PBS solution, the plate was covered and cultured overnight at 2 to 8° C. Thereafter, the wells were washed once with 150 μL PBS per well, and blocked with 120 μL of blocking buffer (1×PBS-T w/3% BSA) per well for 2 hours at room temperature. The blocking buffer was discarded and 30 μL solution containing #1 to #9 bispecific molecules (5-fold serial dilution) was added, followed by reaction for 1 hour at room temperature. Then, the wells were washed three times with 150 μL PBS per well. 30 μL of HRP conjugated anti-Human IgG1 Fc Ab diluted in the blocking buffer was added to each well, and reacted at room temperature for 1 hour. Thereafter, the wells were washed three times with 150 μL of washing buffer per well, the HRP reaction was developed using TMB, and the reaction was stopped with 30 μL 1 N HCl. Then, the optical density (OD) was measured at 450 nm.
On to B1, for which the EC50 was 3.62 nM.

Consider B2, for which the EC50 came out at 3.41 nM.

In the case of B3, the EC50 was 2.02 nM.

For the molecule B4, the EC50 is 9.08 nM.

Take B5: the EC50 was found to be 3.94 nM.

B6: the EC50 worked out at 3.84 nM.

On to B7, for which the EC50 turned out to be 4.39 nM.

As to B8, the EC50 came out at 5.83 nM.

Turning to B9, the EC50 is 24.8 nM.

The target in the next test is T2, recombinant human TGFβ3 protein (R&D …). Put plainly: ELISA; plate-coated TGFβ3, bispecific titrated, anti-human IgG1 Fc-HRP. The procedure:
as §1
Turning to B1, the EC50 turned out to be 3.14 nM.

B2: the EC50 stood at 2.94 nM.

For B3, the EC50 was 3.32 nM.

Turning to B4, the EC50 turned out to be 4.56 nM.

With B5, the EC50 came out at 5.98 nM.

B6: the 50% effective concentration (EC50) came out at 4.72 nM.

As to B7, the EC50 was 3.8 nM.

Turning to B8, the EC50 is 7.92 nM.

On to B9, for which the EC50 turned out to be 8.09 nM.

The target in another test is T4, recombinant human TGFβ1 protein (R&D …). Nature of the test: bridging ELISA; plate-coated TGFβ1, bispecific titrated, detected with His-tag human B7-H3 and anti-His-HRP. The procedure: After coating a plate with the recombinant human TGFβ1 protein (30 μL, 0.5 μg/ml) in 1×PBS solution, the plate was covered and cultured overnight at 2 to 8° C. Thereafter, the wells were washed once with 150 μL PBS per well, and blocked with 120 µL of blocking buffer (1×PBS-T w/3% BSA) per well for 2 hours at room temperature. The blocking buffer was discarded and 4-fold diluted antibody solution was added by 30 μL, followed by reaction for 2 hour at room temperature. Then, the wells were washed three times with 150 μL of washing buffer (1×PBS-T) per well.
Thereafter, 30 μL of His-tag human B7-H3 protein diluted in the blocking buffer was added to each well, and cultured at room temperature for 2 hours. Thereafter, the wells were washed three times with 150 μL of washing buffer per well. 30 μL of HRP conjugate of anti-His tag antibody diluted in the blocking buffer was added to each well, and reacted at room temperature for 1 hour. Thereafter, the wells were washed three times with 150 μL of washing buffer per well, the HRP reaction was developed using TMB, and the reaction was stopped with 30 μL 1 N HCl. Then, the optical density (OD) was measured at 450 nm.
Turning to B1, the EC50 was determined as 3.74 nM.

Consider B2, for which the 50% effective concentration (EC50) is 1.98 nM.

Regarding B3, the half-maximal effective concentration (EC50) is 1.96 nM.

In the case of B4, the EC50 was found to be 2.21 nM.

As for B5, the EC50 came out at 1.56 nM.

For the molecule B6, the EC50 is 3.83 nM.

Consider B7, for which the EC50 came to 2.11 nM.

For the molecule B8, the EC50 stood at 1.43 nM.

B9: the EC50 amounted to 3.15 nM.

A further test addresses T3, recombinant human TGFβ2 (R&D Systems, …). Nature of the test: ELISA; plate-coated bispecific, TGFβ2 titrated (EC50 is a TGFβ2 concentration), biotinylated anti-TGFβ2 detection. The procedure: After coating a plate with 1×PBS solution containing #1 to #9 bispecific molecules (30 μL, 0.5 μM), the plate was covered and cultured overnight at 2 to 8° C. Thereafter, the wells were washed once with 150 μL PBS per well, and blocked with 120 µL of blocking buffer (1×PBS-T w/3% BSA) per well for 2 hours at room temperature. The blocking buffer was discarded, recombinant human TGFβ2 (R&D Systems, Cat #302-B2-010/CF) was 4-fold diluted in serial from 30 nM. After adding each diluted solution to the wells by 30 μL per well, it was reacted at room temperature for 1 hour. Then, the wells were washed three times with 150 μL of washing buffer (1×PBS-T) per well, followed by diluting Biotinylated-TGF-beta2 antibody combined with the recombinant human TGFβ2 protein in the blocking buffer. After adding the diluted solution to the wells by 30 μL per well, it was reacted at room temperature for 1 hour. Further, after washing the wells three times with 150 μL of washing buffer (1×PBS-T) per well, 30 μL of streptavidin-HRP diluted in the blocking buffer was added to each well, and reacted at room temperature for 1 hour. After washing the wells three times with 150 μL of washing buffer (1×PBS-T) per well, HRP reaction was developed using TMB, and the reaction was stopped with 30 μL 1 N HCl. Then, the optical density (OD) was measured at 450 nm.
Consider B1, for which the EC50 amounted to 0.143 nM.

In the case of B2, the EC50 turned out to be 2.08 nM.

Take B3: the EC50 came to 0.13 nM.

With B4, the EC50 came out at 0.083 nM.

Consider B5, for which the EC50 was found to be 0.143 nM.

B6: the EC50 worked out at 0.136 nM.

Regarding B7, the EC50 is 0.076 nM.

Regarding B8, the EC50 stood at 0.14 nM.

For the molecule B9, the EC50 is 0.12 nM.

The target in another test is T4, recombinant human TGFβ1 protein (R&D …). Put plainly: bridging ELISA on plate-coated TGFβ1, detected with His-tag human B7-H3; paragraph 158 says the mono antibodies are not bound to TGFβ1.
On to B10, for which the binding result was “no binding”.

For B11, the binding result is “no binding”.
